In the test the target is recombinant mouse OSM (mouse) (UniProt P53347). Put plainly: cell-based or functional assay.
UniProt P53347, sequence (P53347 24-206 limits assumed): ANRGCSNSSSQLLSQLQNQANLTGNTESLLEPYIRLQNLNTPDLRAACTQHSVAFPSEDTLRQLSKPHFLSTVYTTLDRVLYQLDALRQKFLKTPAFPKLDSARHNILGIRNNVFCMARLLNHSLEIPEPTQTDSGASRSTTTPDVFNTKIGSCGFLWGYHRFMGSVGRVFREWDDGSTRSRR

As for “O-RFP (recombinant murine OSM receptor fusion protein) (from UniProt O70458 24-426; Q00560 123-322) (Fc fusion)”, the molar ratio of neutralizing agent required for 50% neutralization (SOCS3 expression in mouse colonic fibroblasts treated with 10 ng/ml recombinant mouse OSM, 2 hours) (molar ratio (neutralizing agent:OSM)) is 1.7.

(Values after patent US20180022800A1.)
